8 sequences from the supplement of paper PMC11246515 can be followed below.

This series in a line: total protein half-life in vivo (active degradation + dilution); higher = more stable protein.
Setting [1] is: E. coli NCM3722 delta-clpP delta-lon delta-hslV, growth: N-lim chemostat, doubling time 6 h.
The mark [2] stands for this setting: E. coli NCM3722 delta-clpP, growth: N-lim chemostat, doubling time 6 h.
The mark [3] stands for this setting: E. coli NCM3722 delta-hslV, growth: N-lim chemostat, doubling time 6 h.
Where [4] appears, read: E. coli NCM3722 delta-lon, growth: N-lim chemostat, doubling time 6 h.
The mark [5] stands for this setting: E. coli NCM3722 delta-smpB, growth: N-lim chemostat, doubling time 6 h.
Setting [6] is: wild type E. coli NCM3722, growth: C-lim chemostat, doubling time 6 h.
Setting [7] is: wild type E. coli NCM3722, growth: C-lim chemostat, doubling time 12 h.
[8] abbreviates: wild type E. coli NCM3722, growth: N-lim chemostat, doubling time 6 h.
Where [9] appears, read: wild type E. coli NCM3722, growth: N-lim chemostat, doubling time 12 h.
The mark [10] stands for this setting: wild type E. coli NCM3722, growth: P-lim chemostat, doubling time 6 h.
Setting [11] is: wild type E. coli NCM3722, growth: P-lim chemostat, doubling time 12 h.
Where [12] appears, read: wild type E. coli NCM3722, growth: C-lim chemostat, doubling time 3 h.

± gives the standard deviation of the averaged measurements.

Take “MEKTTTQELLAQAEKICAQRNVRLTPQRLEVLRLMSLQDGAISAYDLLDLLREAEPQAKPPTVYRALDFLLEQGFVHKVESTNSYVLCHLFDQPTHTSAMFICDRCGAVKEECAEGVEDIMHTLAAKMGFALRHNVIEAHGLCAACVEVEACRHPEQCQHDHSVQVKKKPR [P0AC51]”: the “total protein half-life in vivo” value by setting is: under setting [1], 5.27 ± 0.88 h; under setting [2], 5.4504 ± 0.0027 h; under setting [3], 5.09 h; under setting [4], 5.63 ± 0.19 h; under setting [5], 4.2 ± 0.9 h; under setting [6], 3.79 h. Also, the “total protein half-life in vivo” value runs as follows: under setting [7], 9 ± 1.9 h; under setting [8], 5.15 h; under setting [9], 6.28 h; under setting [10], 3.86 ± 0.18 h; under setting [11], 8.62 ± 0.42 h.
Consider “MKKVAAFVALSLLMAGCVSNDKIAVTPEQLQHHRFVLESVNGKPVTSDKNPPEISFGEKMMISGSMCNRFSGEGKLSNGELTAKGLAMTRMMCANPQLNELDNTISEMLKEGAQVDLTANQLTLATAKQTLTYKLADLMN”, for which the “total protein half-life in vivo” value reads like this: under setting [1], 6.45 ± 1.1 h; under setting [2], 6.13 ± 0.01 h; under setting [3], 6.52 ± 1.3 h; under setting [5], 6.01 ± 0.55 h; under setting [12], 2.95 ± 0.68 h; under setting [6], 5.47 ± 1.1 h. Also, the “total protein half-life in vivo” value under setting [7] amounted to 11 ± 0.29 h; the “total protein half-life in vivo” value under setting [8] was 6.111 ± 0.014 h; the “total protein half-life in vivo” value under setting [9] was found to be 11.5 ± 1.1 h; the “total protein half-life in vivo” value under setting [10] amounted to 6 ± 0.54 h; the “total protein half-life in vivo” value under setting [11] turned out to be 12.9 ± 0.28 h.
Consider “MTINDSAISEQGMCEEEQVARIAWFYYHDGLTQSEISDRLGLTRLKVSRLLEKGHQSGIIRVQINSRFEGCLEYETQLRRQFSLQHVRVIPGLADADVGGRLGIGAAHMLMSLLQPQQMLAIGFGEATMNTLQRLSGFISSQQIRLVTLSGGVGSYMTGIGQLNAACSVNIIPAPLRASSADIARTLKNENCVKDVLLAAQAADVAIVGIGAVSQQDDATIIRSGYISQGEQLMIGRKGAVGDILGYFFDAKGDVVTNIKIHNELIGLPLSALKTIPVRVGVAGGENKAEAIAAAMKGGYINALVTDQDTAAAILRS”, for which the “total protein half-life in vivo” value is 5.64 ± 1.1 h under setting [1]; 5.69 ± 0.67 h under setting [2]; 4.76 ± 0.47 h under setting [3]; 4.58 ± 0.45 h under setting [4]; 4.6 ± 0.058 h under setting [5]; 2.88 ± 0.2 h under setting [12]. In addition, the “total protein half-life in vivo” value runs as follows: under setting [6], 4.551 ± 0.016 h; under setting [7], 7.78 h; under setting [8], 4.64 ± 0.19 h; under setting [9], 8.2 ± 0.58 h; under setting [10], 5.08 h.
For the sequence “MSNLSLDFSDNTFQPLAARMRPENLAQYIGQQHLLAAGKPLPRAIEAGHLHSMILWGPPGTGKTTLAEVIARYANADVERISAVTSGVKEIREAIERARQNRNAGRRTILFVDEVHRFNKSQQDAFLPHIEDGTITFIGATTENPSFELNSALLSRARVYLLKSLSTEDIEQVLTQAMEDKTRGYGGQDIVLPDETRRAIAELVNGDARRALNTLEMMADMAEVDDSGKRVLKPELLTEIAGERSARFDNKGDRFYDLISALHKSVRGSAPDAALYWYARIITAGGDPLYVARRCLAIASEDVGNADPRAMQVAIAAWDCFTRVGPAEGERAIAQAIVYLACAPKSNAVYTAFKAALADARERPDYDVPVHLRNAPTKLMKEMGYGQEYRYAHDEANAYAAGEVYFPPEIAQTRYYFPTNRGLEGKIGEKLAWLAEQDQNSPIKRYR [P0AAZ4]”, the “total protein half-life in vivo” value is, setting by setting: under setting [1], 5.65 ± 0.3 h; under setting [2], 4.56 ± 0.49 h; under setting [3], 4.91 ± 1.5 h; under setting [4], 4.562 ± 0.028 h; under setting [5], 3.65 ± 0.14 h; under setting [12], 3.02 ± 0.14 h. Besides, the “total protein half-life in vivo” value reads like this: under setting [6], 5.39 ± 0.29 h; under setting [7], 9.37 ± 0.81 h; under setting [8], 3.82 ± 0.099 h; under setting [9], 5.11 ± 0.23 h; under setting [10], 5.07 ± 0.082 h; under setting [11], 9.954 ± 0.019 h.
Consider “MSRVNPLSSLSLLAVLVLAGCSSQAPQPLKKGEKAIDVASVVRQKMPASVKDRDAWAKDLATTFESQGLAPTLENVCSVLAVAQQESNYQADPAVPGLSKIAWQEIDRRAERMHIPAFLVHTALKIKSPNGKSYSERLDSVRTEKQLSAIFDDLINMVPMGQTLFGSLNPVRTGGPMQVSIAFAEQHTKGYPWKMDGTVRQEVFSRRGGLWFGTYHLLNYPASYSAPIYRFADFNAGWYASRNAAFQNAVSKASGVKLALDGDLIRYDSKEPGKTELATRKLAAKLGMSDSEIRRQLEKGDSFSFEETALYKKVYQLAETKTGKSLPREMLPGIQLESPKITRNLTTAWFAKRVDERRARCMKQ”, for which the “total protein half-life in vivo” value runs as follows: under setting [1], 6.06 ± 0.21 h; under setting [5], 5.8 ± 0.24 h; under setting [12], 3.28 ± 0.2 h; under setting [6], 6.11 ± 0.086 h; under setting [7], 11.2 ± 0.54 h; under setting [8], 6.93 ± 0.84 h. Also, the “total protein half-life in vivo” value came out at 12.9 ± 0.39 h under setting [9], 6.11 ± 0.4 h under setting [10] and 12.4 ± 0.53 h under setting [11].
With “MLTIQFLCPLPNGLHARPAWELKEQCSQWQSEITFINHRQNAKADAKSSLALIGTGTLFNDSCSLNISGSDEEQARRVLEEYIQVRFIDSDSVQPTQAELTAHPLPRSLSRLNPDLLYGNVLASGVGVGTLTLLQSDSLDSYRAIPASAQDSTRLEHSLATLAEQLNQQLRERDGESKTILSAHLSLIQDDEFAGNIRRLMTEQHQGLGAAIISNMEQVCAKLSASASDYLRERVSDIRDISEQLLHITWPELKPRNKLVLEKPTILVAEDLTPSQFLSLDLKNLAGMILEKTGRTSHTLILARASAIPVLSGLPLDAIARYAGQPAVLDAQCGVLAINPNDAVSGYYQVAQTLADKRQKQQAQAAAQLAYSRDNKRIDIAANIGTALEAPGAFANGAEGVGLFRTEMLYMDRDSAPDEQEQFEAYQQVLLAAGDKPIIFRTMDIGGDKSIPYLNIPQEENPFLGYRAVRIYPEFAGLFRTQLRAILRAASFGNAQLMIPMVHSLDQILWVKGEIQKAIVELKRDGLRHAETITLGIMVEVPSVCYIIDHFCDEVDFFSIGSNDMTQYLYAVDRNNPRVSPLYNPITPSFLRMLQQIVTTAHQRGKWVGICGELGGESRYLPLLLGLGLDELSMSSPRIPAVKSQLRQLDSEACRELARQACECRSAQEIEALLTAFTPEEDVRPLLALENIFVDQDFSNKEQAIQFLCGNLGVNGRTEHPFELEEDVWQREEIVTTGVGFGVAIPHTKSQWIRHSSISIARLAKPIGWQSEMGEVELVIMLTLGANEGMNHVKVFSQLARKLVNKNFRQSLFAAQDAQSILTLLETELTF”, the “total protein half-life in vivo” value by setting is: under setting [1], 6.54 h; under setting [5], 2.21 h; under setting [12], 2.36 h; under setting [10], 3.21 h.
For the sequence “MAIIPKNYARLESGYREKALKIYPWVCGRCSREFVYSNLRELTVHHIDHDHTNNPEDGSNWELLCLYCHDHEHSKYTEADQYGTTVIAGEDAQKDVGEAKYNPFADLKAMMNKKK [P0AAQ2]”, the “total protein half-life in vivo” value is 4.15 ± 1.2 h under setting [1]; 1.71 ± 0.098 h under setting [2]; 1.5 ± 0.031 h under setting [3]; 2.74 ± 0.48 h under setting [4]; 1.63 ± 0.71 h under setting [5]; 0.968 ± 0.29 h under setting [12]. Besides, the “total protein half-life in vivo” value reads like this: under setting [6], 1.73 h; under setting [7], 2.42 h; under setting [8], 1.97 h; under setting [9], 1.54 h; under setting [10], 1.18 h; under setting [11], 3.1 ± 0.97 h.
For “MTPWFLYLIRTADNKLYTGITTDVERRYQQHQSGKGAKALRGKGELTLVFSAPVGDRSLALRAEYRVKQLTKRQKERLVAEGAGFAELLSSLQTPEIKSD”, the “total protein half-life in vivo” value was determined as 6.282 ± 0.0083 h under setting [1] and 1.75 h under setting [10].
